The subject of series [1] is T1, UPF1-HD (Homo sapiens), Q92900-2.
T1 sequence: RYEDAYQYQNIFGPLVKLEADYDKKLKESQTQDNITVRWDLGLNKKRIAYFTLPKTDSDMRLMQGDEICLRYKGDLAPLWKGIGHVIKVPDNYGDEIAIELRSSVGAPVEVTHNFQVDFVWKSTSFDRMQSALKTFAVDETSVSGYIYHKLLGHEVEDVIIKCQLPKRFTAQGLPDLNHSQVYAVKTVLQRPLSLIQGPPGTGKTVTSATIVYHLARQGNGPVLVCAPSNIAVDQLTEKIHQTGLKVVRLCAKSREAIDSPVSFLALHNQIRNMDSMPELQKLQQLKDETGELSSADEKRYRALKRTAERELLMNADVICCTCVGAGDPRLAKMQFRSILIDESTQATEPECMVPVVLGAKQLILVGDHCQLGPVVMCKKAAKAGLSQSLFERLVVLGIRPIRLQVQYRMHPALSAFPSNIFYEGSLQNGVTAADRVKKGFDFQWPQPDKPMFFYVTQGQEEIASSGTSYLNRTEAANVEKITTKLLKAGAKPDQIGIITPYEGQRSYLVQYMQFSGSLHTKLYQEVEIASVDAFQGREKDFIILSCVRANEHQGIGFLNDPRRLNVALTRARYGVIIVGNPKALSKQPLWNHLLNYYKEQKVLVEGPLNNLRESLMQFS
The series can be described thus: BLI. The following applies: BLI: 20 mM HEPES pH 7.5, 150 mM K acetate, 2 mM Mg acetate, 1 mM DTT, 6.3% glycerol, 0.1% NP-40; EMSA: 20 mM MES pH 6.0, 150 mM K acetate, 2 mM DTT, 0.2 ug/ul ….

For series [2], the target named is GST-Tax_(CACA) (HTLV-1 Tax with C23 and C29 changed to alanine, N-terminal GST fusion) (HTLV-1) (UniProt P03409). The series can be described thus: BLI; BLItz; GST-Tax covalently bound to an AR2G sensor; UPF1 His-HD proteins in running buffer (300 mM NaCl, 20 mM phosphate, 0.02% Tween 20, 0.1% albumin); 250 s association, 60 s dissociation.

pKd: −log10 of the molar value.

Take 5'-biotin 30-mer ssDNA (BLI): the pKd in series [1] was 8.08.
Turning to “UPF1-HD_(R843C), histidine-tagged (from UniProt Q92900-2 295-914) (domain or fragment)”, the fold change of KD against WT in series [2] is 3.2 times.

These data come from PMC5789848.
